Measurements taken from patent US20130059782.

Target: full-length TF his-tag modified protein in yeast-derived microvesicles (TT-173): mature hTF with Asn124Ala mutation and six histidines at the C-terminus

B1: activated coagulation Factor VII (purified commercial FVIIa) (protein)
chain: ANAFLEELRPGSLERECKEEQCSFEEAREIFKDAERTKLFWISYSDGDQCASSPCQNGGSCKDQLQSYICFCLPAFEGRNCETHKDDQLICVNENGGCEQYCSDHTGTKRSCRCHEGYSLLADGVSCTPTVEYPCGKIPILEKRNASKPQGRIVGGKVCPKGECPWQVLLLVNGAQLCGGTLINTIWVVSAAHCFDKIKNWRNLIAVLGEHDLSEHDGDEQSRRVAQVIIPSTYVPGTTNHDIALLRLHQPVVLTDHVVPLCLPERTFSERTLAFVRFSLVSGWGQLLDRGATALELMVLNVPRLMTQDCLQQSRKVGDSPNITEYMFCAGYSDGSKDSCKGDSGGPHATHYRGTWYLTGIVSWGQGCATVGHFGVYTRVSQYIEWLQKLMRSEPRPGVLLRAPFP
amidolytic activity of the TF:FVIIa complex (chromogenic substrate S-2288), TT-173 with or without added PS: there was no appreciable differences in the amidolytic activity between TT-173 with or without PS at the three concentrations of TT-173 tested, and at both concentrations of FVIIa used, 50 nM (not shown) or 500 nM (FIG. 7)
